B1: BMPR1Becd (soluble ectodomain of rhBMPR1B) (receptor, human, UniProt O00238 14-126, looked up)
chain: KKEDGESTAPTPRPKVLRCKCHHHCPEDSVNNICSTDGYCFTMIEEDDSGLPVVTSGCLGLEGSDFQCRDTPIPHQRRSIECCTERNECNKDLHPTLPPLKNRDFVDGPIHHR
notes: BMPR1B, BMP type I receptor, human (rh), extracellular domain; also called BMPR1B ectodomain
B2: rhGDF5 (recombinant human Growth & Differentiation Factor 5) (ligand)
chain: RQGKRPSKNLKARCSRKALHVNFKDMGWDDWIIAPLEYEAFHCEGLCEFPLRSHLEPTNHAVIQTLMNSMDPESTPPTCCVPTRLSPISILFIDSANNVVYKQYEDMVVESCGCR
notes: GDF5 (CDMP1), human, recombinant; also called CDMP1; wild-type GDF5; source: bought/supplied: Biopharm GmbH

What all share (assay): SPR; BIA2000 system (Biacore); receptor ectodomains immobilised, GDF5 proteins as analyte; apparent KD; n = 6; as described in ref. 16
Background: SPR reads the build-up and loss of mass on a sensor chip optically.

Assay [1] addresses BMPR1Aecd (soluble ectodomain of rhBMPR1A) (human) (UniProt P36894).
Assay [2] deals with BMPR1Becd (soluble ectodomain of rhBMPR1B) (human) (UniProt O00238).
In assay [3] the target is B2. The conditions noted are these: both partners purified.
The target in assay [4] is T1, BMPR1Aecd (soluble ectodomain of rhBMPR1A) (human, UniProt P36894 24-152).
T1 construct: BMPR1A, BMP type I receptor, human (rh), extracellular domain; also called BMPR1A ectodomain
T1 sequence (P36894 24-152): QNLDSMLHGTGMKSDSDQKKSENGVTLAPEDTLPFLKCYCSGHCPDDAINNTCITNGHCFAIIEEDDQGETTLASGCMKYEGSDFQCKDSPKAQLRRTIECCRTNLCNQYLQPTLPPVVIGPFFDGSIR
The following applies: both partners purified.

BMPR1Aecd (soluble ectodomain of rhBMPR1A) (human), sequence (P36894 24-152): as above

Regarding “rhN445T GDF5 (from UniProt P43026 28-501) (ligand)”, the results for the Kd in assay [1] and in assay [2] were 19.5 nM and 1.2 nM, respectively.

On to B1, for which the Kd in assay [3] was 1.1 ± 0.2 nM.

On to B2, for which the Kd in assay [4] amounted to 17 ± 4.6 nM.
